Results as given in patent US20120121581A1 (XOMA TECHNOLOGY, published 2012).

B1: ABT01 (antibody, V domains shown)
VH: QVQLQQSGGGLVQPGGSLRLSCAASGFTFKYDYMYWIRQAPGKGLEWVATISDGGSYTYYSDSVEGRFTTSRDNSKNTLYLQMNSLRAEDTAIYYCSRYRYDDAMDYWGQGTLVTVSS
VL: EIVLTQSPATLSLSPGERATISCRASESVDSYGHSFMQWYQQKPGQAPRLLIYRASNLEPGIPARFSGSGSGTDFTLTISSLEPEDFAVYYCQQGNEVPFTFGQGTKVEIK
B2: ABT03 (antibody, V domains shown)
VH: QVQLQQSGGGLVQPGGSLRLSCAASGFTFSNYAMTWVRQAPGKGLEWVSSISVGGSDTYYADSVKGRFTVSRDNSKNTLLLQMNSLRAEDTAVYYCAKVRTKYCSSLSCFAGFDSWGQGTRVTVSS
VL: DVVMTQSPSSLSASVGDRVTITCRASQSISSYLHWYQQKPGKAPTLLISDASSSQSGVPSRFSGSRFGTDFTLTISSLQPEDFATYYCQQSYSTRALTFGGGTKVEIK
B3: ABT02 (antibody, V domains shown)
VH: QVQLVQSGGGVVHPGRSLKLSCAGSGFTFSDYDMHWVRQAPGKGLEWVAVMWFDGTEKYSAESVKGRFTISRDNSKNTLFLQMNSLRADDTAVYYCAREPDWLLWGDRGALDVWGQGTTVTVSS
VL: DIVMTQSPSTLSASVGDRVTITCWASQSISSRLAWYQQKPGKAPKLLMYEATSLGSGVPSRFSGSGSGTEFTLTISSLQPDDFAAYYCQHYDTYPYTFGQGTKLEIK

Legend:
Experiment in all cases: ELISA, toxin domain coated on plate
[1] = biological target: BoNT/A heavy-chain C-terminus (HCC) domain (UniProt P0DPI0 1093-1296)
[2] = biological target: BoNT/A light-chain heavy-chain N-terminus (LCHN) domain (UniProt P0DPI0 1-870)
[3] = biological target: BoNT/A heavy-chain N-terminus (HCN) domain (UniProt P0DPI0 871-1092)
Chain of BoNT/A heavy-chain N-terminus (HCN) domain (P0DPI0 871-1092 limits assumed): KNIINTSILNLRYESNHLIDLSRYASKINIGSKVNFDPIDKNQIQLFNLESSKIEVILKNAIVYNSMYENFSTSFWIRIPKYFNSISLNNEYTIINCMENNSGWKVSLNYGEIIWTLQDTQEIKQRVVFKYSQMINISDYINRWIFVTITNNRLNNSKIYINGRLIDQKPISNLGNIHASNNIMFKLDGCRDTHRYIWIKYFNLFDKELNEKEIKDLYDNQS

Chain of BoNT/A light-chain heavy-chain N-terminus (LCHN) domain (P0DPI0 1-870 limits assumed): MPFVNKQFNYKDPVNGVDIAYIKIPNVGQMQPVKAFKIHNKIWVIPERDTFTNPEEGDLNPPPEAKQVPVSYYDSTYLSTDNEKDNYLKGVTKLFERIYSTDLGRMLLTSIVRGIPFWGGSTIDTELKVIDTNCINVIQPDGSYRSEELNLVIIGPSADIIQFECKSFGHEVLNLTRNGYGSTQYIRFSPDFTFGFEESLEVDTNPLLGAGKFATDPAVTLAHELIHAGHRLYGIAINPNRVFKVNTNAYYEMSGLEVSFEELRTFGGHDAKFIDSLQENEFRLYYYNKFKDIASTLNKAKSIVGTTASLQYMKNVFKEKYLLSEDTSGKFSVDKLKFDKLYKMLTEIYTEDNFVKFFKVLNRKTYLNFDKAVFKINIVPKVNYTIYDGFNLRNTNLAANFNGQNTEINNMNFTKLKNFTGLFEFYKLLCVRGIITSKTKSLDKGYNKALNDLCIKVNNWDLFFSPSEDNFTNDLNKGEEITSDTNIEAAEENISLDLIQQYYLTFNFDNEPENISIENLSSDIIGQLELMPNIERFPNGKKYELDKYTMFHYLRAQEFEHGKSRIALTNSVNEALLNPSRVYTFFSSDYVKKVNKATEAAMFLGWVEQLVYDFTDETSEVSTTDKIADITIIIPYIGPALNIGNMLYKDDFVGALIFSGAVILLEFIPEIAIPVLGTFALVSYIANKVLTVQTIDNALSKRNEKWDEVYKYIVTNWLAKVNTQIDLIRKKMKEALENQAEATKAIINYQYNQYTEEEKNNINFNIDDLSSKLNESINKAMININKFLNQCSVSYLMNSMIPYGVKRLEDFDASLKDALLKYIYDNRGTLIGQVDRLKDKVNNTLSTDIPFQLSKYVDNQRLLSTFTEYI
Chain of BoNT/A heavy-chain C-terminus (HCC) domain (P0DPI0 1093-1296 limits assumed): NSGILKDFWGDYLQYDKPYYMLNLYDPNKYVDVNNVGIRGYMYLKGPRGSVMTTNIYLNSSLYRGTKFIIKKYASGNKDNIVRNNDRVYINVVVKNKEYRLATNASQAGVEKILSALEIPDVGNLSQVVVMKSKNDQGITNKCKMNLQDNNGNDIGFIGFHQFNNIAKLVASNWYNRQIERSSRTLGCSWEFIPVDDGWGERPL

Binder | binding result [1] | binding result [2] | binding result [3]
B1 | no binding | no binding | 
B2 | no binding |  | no binding
B3 |  | no binding | no binding
